From patent US20250154494A1, “Microfluidic Co-Encapsulation Device and System and Methods for Identifying T-Cell Receptor Ligands” (JANSSEN BIOTECH, INC., priority 2021, published 2025)

Tests used:
Type in all cases: cell-based
[1] = tested on: T-cells expressing cognate TCR
Jurkat cells = assay: Droplet co-culture of B and T cells, CD69 surface expression by flow cytometry; details: EDTA without added calcium
Description: One day prior to encapsulation, BOLETH cells were cultured in the presence of cognate or negative control peptides at a final concentration of 1 μM. Cells were collected the next day, centrifuged at 300 g for 5 min, then resuspended in B-cell medium at a final concentration of 1.4×10^7 cells/ml. These were further supplemented with same peptide and with or without EDTA. TCR-expressing Jurkat cells were centrifuged at 300 g and resuspended in B-cell medium at a concentration of 4×10^7 cells/ml. These were then further supplemented with respective concentrations of calcium. BOLETH, Jurkat, and detergent-containing fractions were connected to the microfluidic chip as described. Pressures were applied using an OB1 MK3+ and the droplet emulsion was collected into a 1.5 ml reaction tube containing oil.
Droplets were incubated at 37° C. in a 5% CO2 humidified incubator. Following overnight incubation, droplet emulsions were disrupted by adding two volumes of Pico-Break 1 (SPHERE FLUIDICS). Tubes were quickly inverted several times and centrifuged for 15 s at 300 rpm to facilitate separation of the cell-containing fraction. […] Tubes were centrifuged for 5 min at 300 g and cell pellets were subsequently resuspended in 100 μl of FACS buffer and were analyzed via flow cytometry. […]

[2] = tested on: Jurkat and SKW3 reporter cells; assay: Co-culture of TT2-expressing P10-NBV reporter Jurkat and SKW3 cells with cognate minigene-transduced B cells overexpressing Flag-tagged surface receptors; details: overexpression on minigene-transduced B cells
Description: For the purpose of testing the different Flag-tagged surface receptors, InFusion-based cloning (TAKARA) was used to replace the mTagBFP2 reporter with the human codon optimized coding sequence of each candidate surface receptor, N-terminally or C-terminally tagged with a flexible 6× Flag to face the extracellular space. Specifically, the coding region of CD40, CD58, CD80, CD83, CD86, OX40L and 4-1BBL were cloned and tested.
Co-culture experiments were done using round bottom 96 well plates. P10-NBV Jurkat and SKW3 reporter cells and B cells are seeded 1 to 1 ratio into each well. Next day the cells are spun down and stained for Flow cytometry.

BOLETH cells = assay: Labeling of BOLETH cells with scFv-containing supernatant of transfected HEK293 cells, flow cytometry; details: for signal strength in tandem (T2A) scFv constructs relative to single scFv constructs: αCD19-HA and αCD20-V5 in one expression construct
Description: Current generation T cell reporter systems consists of a cis-regulatory element comprising multiple copies of a synthetic promoter sequence (‘NBV’). […] The scFv is derived from a monoclonal αCD19-antibody (clone B43) binding to the B cell-specific transmembrane protein CD19, which is commonly used in monoclonal antibody-mediated immunotherapy (Uckun et al., 1988, Blood, 71(1):13-29). It is tagged with six HA epitope tags at its C-terminus, which facilitates its detection by flow cytometry. To optimize the current reporter and B cell labeling strategy, the potential of additional scFvs was tested. In particular, an αCD20-scFv derived from a human monoclonal antibody was evaluated that recognizes an epitope encompassing the membrane-proximal small-loop on the CD20 molecule, known as ofatumumab (clone 2F2) (Teeling et al., 2004, Blood, 104(6):1793-800). In order to test its functionality, scFv constructs were assembled in both the VH-VL and VL-VH configuration. The heavy and light chain domains were separated by a flexible polypeptide linker (G4S)3. To confirm that ofatumumab, as an scFv tagged with four copies of the V5 label, a small epitope-tag found on P and V proteins of the paramyxovirus, can efficiently label BOLETH cells and be detected by flow cytometry, the coding region was inserted into a CMV expression plasmid. HEK293 cells were transfected with the construct using TurboFect. As a negative control, HEK293 cells were transfected with a sfGFP-containing construct. Medium was exchanged 24 hours post-transfection. The scFv-containing supernatant (SN) was collected 72 hours post-transfection and was used to label BOLETH cells. Using fluorescent dye-conjugated antibodies recognizing the tagged scFvs, the amount of B cell bound scFv was measured by flow cytometry (FIG. 8A).
For optimizing scFv reporter constructs, constructs containing combinations of B43 and 2F2 tagged with either HA or V5 were cloned in pTwist CMV WPRE Neo BetaGlobin. For testing, HEK cells were transiently transfected with the plasmids using TurboFect (Fermentas). […]

TCR signaling = assay: Co-culture of Jurkat reporter cells carrying synthetic promoters with peptide-loaded B cells (GFP / HA reporter)
Description: Sleeping beauty transposon reporter constructs were transfected together with transposases into T cells, 5 to 1 ratio, using the Neon transfection system following the manufacturer's protocol. The voltages used for Jurkat cells were 1350V/[…]/3 pulse, and for SKW-3 cells 1500V, […] and 1 pulse were used as settings. 48-72 hours after transfection, the cells were selected using […] Blasticidin for Jurkat and […] Blasticidin for SKW-3 cells.
Co-culture experiments were performed using round-bottom 96-well plates. P10-NBV Jurkat and SKW-3 reporter cells and B cells were seeded at a 1:1 ratio into each well. For peptide co-culture experiments, either cognate peptide or mismatched peptide is added to each well and incubated for 16 hours. For minigene-based co-culture experiments, minigene-transduced B cells harboring either the cognate of mismatch minigenes were used. Next day the cells are spun down and stained for Flow cytometry.

## BT1 construct: minigene expression construct with first transmembrane domain of Bcap31 fused to the minigene N-terminus; SEQ ID NO:116 (DNA AVATFLYAEVFVVLLLCIPFI)
[1]
  T-cell activation with 400 AA minigene: strong T-cell activation even with a 400 AA minigene
  stability of T-cell activation over time: stable T-cell activation over time
  strength of minigene-induced T-cell activation: strong T-cell activation, similar to the positive control
[1]; TT2 TCR
  presentation of the TetX_400_1 minigene relative to 2B construct: did not improve the presentation

## O=C(O)CN(CCN(CC(=O)O)CC(=O)O)CC(=O)O [EDTA]
Jurkat cells
  T-cell activation in presence of EDTA (chelation of calcium from the media): T-cell activation is inhibited

## 4-1BBL: Flag-tagged surface receptor overexpressed on minigene-transduced B cells; SEQ ID NO:85
[2]
  minigene-based T cell activation: potentiates minigene-based T cell activation

B1: αCD19-HA: secreted scFv derived from monoclonal αCD19 antibody clone B43, six HA epitope tags at C-terminus; SEQ ID NO:39 (protein)
scFv: EVQLVQSGAEVKKPGSSVKVSCKASGYAFSSYWMNWVRQAPGQGLEWMGQIWPGDSDTNYAQKFQGRVTITADESTSTAYMELSSLRSEDTAVYYCARRETTTVGRYYYAMDYWGQGTTVTVSSGGGGSGGGGSGGGGSDIQLTQSPSFLSASVGDRVTITCKASQSVDYSGDSYLNWYQQKPGKAPKLLIYDASNLVSGVPSRFSGSGSGTEFTLTISSLQPEDFATYYCQQSTENPWTFGGGTKLEIK
modifications: 6x HA tag
BOLETH cells; HEK supernatant staining of B cells
  HA MFI, HA-tagged αCD19 scFv compared to HA-tagged αCD20 scFv: higher MFIs
BOLETH cells
  signal strength in tandem (T2A) scFv constructs relative to single scFv constructs: remains unchanged
BOLETH cells; listed as αCD19 scFv
  signal strength in tandem (T2A) scFv constructs relative to single scFv constructs: retains similar binding capacity

B2: P10 promoter: synthetic TCR responsive promoter, SEQ ID NO:60 (nucleic acid)
DNA: AGAGATGGGCTAACAGGTATGAGCATGGGAAAAGCATGTTTCAAGAATTTGAGATGTATTTCCCAGAAAAGGAACATGATGAAAATGGTCAGAAAAGGCATTCTTAGGGTCCCCAGATGTCTGCCTTTTCCATTGATTTTCTTTCCTGGTTAATTGCGAGGCTTGCCTCAAGGTGGAAAACAGTATCGGTTTCCACTGGATCACTAGGTCACAGGGTTTGCCTTTTTCCAAACCTGCATCTCAATTTTACCTATGATTTGCATTAAATAACTTTGGAAAAATTGAAGTTCTTGAGAAGCCACCGCGCCCGGCCTCCTCTCCTTTTCCAAATTTATACATTTTGATTGGTGGGGAGATTCCATTATAGGGGCTGGAAAACCCCTTTACCATACCATGAATGTAACTGTACTGTTACAAAGTGGAAAATAACAGTTTCCACTTTTCGCAGCTCTTTGAGAGCAGGACTCTATTTTCCAGTCTCTTTATAAGCTTCATTCATAGTGAAGCTAACAGAAGTTTTTCCATGGTTAGATTGTGCACCGGGCTGTTTTTAAATGTAATATGATTTTCCATTTACTTATTTATCTTTGTAGTTTTATGACAAAGAAAATTTTCTGAGTTACTTTTGTATCCCCACCCCCTTAAAGAAAGGAGGAAAAACTGTTTCATACAGAAGGCGTTAATTGCA
TCR signaling; sleeping beauty constructs
  GFP and HA reporter gene expression in sleeping beauty constructs: high GFP and HA reporter gene expression

B3: NBVtf: synthetic transcription factor, fusion of NFAT N-terminus, Bob1 octamer-binding domain and VP16 transactivation domain; SEQ ID NO:76 (protein)
chain: MPSTSFPVPSKFPLGPAAAVFGRGETLGPAPRAGGTMKSAEEEHYGYASSNVSPALPLPTAHSTLPAPCHNLQTSTPGIIPPADHPSGYGAALDGGPAGYFLSSGHTRPDGAPALESPRIEITSCLGLYHNNNQFFHDVEVEDVLPSSKRSPSTATLSLPSLEAYRDPSCLSPASSLSSRSCNSEASSYESNYSYPYASPQTSPWQSPCVSPKTTDPEEGFPRGLGACTLLGSPRHSPSTSPRASVTEESWLGARSSRPASPCNKRKYSLNGRQPPYSPHHSPTPSPHGSPRVSVTDDSWLGNTTQYTSSAIVAAINALTTDSSLDLGDGVPVKSRKTTLEQPPSVALKVEPVGEDLGSPPPPADFAPEDYSSFQHIRKGGFCDQYLAVPQHPYQWAKPKPLSPTSYMSPTLPALDWQLPGSTSGSGKPGSGEGSTKGMLWQKPTAPEQAPAPARPYQGVRVKEPVKELLRRKRGHASSGAAPAPTAVVLPHQPLATYTTVGPSCLDMEGSVSAVTEEAALCAGWLSQPGGGGSGGGGSGGGGSTAPPTDVSLGDELHLDGEDVAMAHADALDDFDLDMLGDGDSPGPGFTPHDSAPYGALDMADFEFEQMFTDALGIDEYGG
TCR signaling; Jurkat-P10NBV-TT2 cells, BOLETH cells loaded with 0.01 μM cognate peptide
  reporter gene expression: further improves reporter gene expression
TCR signaling; Jurkat-P10NBV-TT11 cells, BOLETH cells loaded with 0.1 μM cognate peptide
  reporter gene expression: further improves reporter gene expression

B4: OX40L: Flag-tagged surface receptor overexpressed on minigene-transduced B cells; SEQ ID NO:84 (protein)
chain: ERVQPLEENVGNAARPRFERNKLLLVASVIQGLGLLLCFTYICLHFSALQVSHRYPRIQSIKVQFTEYKKEKGFILTSQKEDEIMKVQNNSVIINCDGFYLISLKGYFSQEVNISLHYQKDEEPLFQLKKVRSVNSLMVASLTYKDKVYLNVTTDNTSLDDFHVNGGELILIHQNPGEFCVLGSGAGGSGSGAGGSGDYKDDDDKGAGSGDYKDDDDKGAGSDYKDDDDKGGAGSDYKDDDDKGSGDYKDDDDKGAGSGDYKDDDDKGSGAGGSS
modifications: Flag tag
[2]
  minigene-based T cell activation: potentiates minigene-based T cell activation
